The values below come from patent US9144596.

Data set [1] concerns mutant (I-A,Y-A) APC peptide (1250-KVSSINQETAQTACVEDTPI-1269).
Data set [2] has as its system wild-type APC peptide (1250-KVSSINQETIQTYCVEDTPI-1269).

As for “His-tagged pol-βwt protein (human pol-β, carboxyl-terminal hexahistidine tag, pET23d)”, the “dRP-lyase activity of pol-βwt (3'-end labeled U-DNA substrate)” value in data set [1] is recorded as “APC(I-A,Y-A) did not show any effect on the dRP-lyase activity of pol-βwt”; in data set [2], “a very efficient dRP-lyase activity of pol-βwt ..., which was blocked by APCwt peptide in a dose-dependent manner”.
